Test results reported in patent CN101696242A.

Molecular target: CVS-11
Test: cell-based or functional assay

B1: 人源抗狂犬病毒中和抗体Fab (Fab, V domains shown)
VH: ELLESGGGLVQPGGSLRLSCAASGFTFSSYAMSWVRQAPGKGLEWVSSINRSGDITTYADSVKGRFTISRDNSKNTLYLQMNSLRAEDTAVYYCAKKTRRFDYWGQGTLVTVSS
VL: ESALTQPRSVSGSPGQSVTISCTGTSSDIGGYNFVSWYQQHPGKAPKLMIYDATKRPSGVPDRFSGSKSGNTASLTISGLQAEDEADYYCCSYAGDYTPGVVFGGGTKLTVLG
B1 gave a 中和效价 (狂犬病荧光抗体病毒中和试验 FAVN, BHK-21细胞) of 10.3 IU/mL.
